{"source": "patent US20130347134A1", "about": "“TRANSGENIC VON WILLEBRAND FACTOR ANIMALS AND USES THEREOF” (priority 2012, published 2013)", "molecules": {"B1": {"name": "His-tag M VWF-A1: recombinant murine VWF-A1 with N-terminus His tag (protein)", "chain": "QEPGGLVAPPTDAPVSSTTPYVEDTPEPPLHNFYCSKLLDLVFLLDGSSMLSEAEFEVLKAFVVGMMERLHISQKRIRVAVVEYHDGSRAYLELKARKRPSELRRITSQIKYTGSQVASTSEVLKYTLFQIFGKIDRPEASHITLLLTASQEPPRMARNLVRYVQGLKKKKVIVIPVGIGPHASLKQIRLIEKQAPENKAFLLSGVDELEQRRDEIVSYLCDLAPEAPAPTQPP"}}, "test_system": "murine platelets", "assay": "In vitro flow chamber, mouse platelets on recombinant VWF-A1, 800 s^-1", "format": "cell-based", "settings": "wall shear rate 800 s^−1", "description": "The protein was subsequently used in a series of in vitro flow chamber assays to assess function. Washed human or murine platelets (5×10^7/ml) were infused through a parallel plate flow chamber containing glass cover slips coated with either human VWF-A1 or mouse VWF-A1 protein (100 μg/ml final concentration) at a shear rate of 800 s^−1. After 5 minutes of continuous flow, adherent platelets were quantified.\nIn the case of the latter, the murine A1 fragment was inserted into pET-11b (Stratagene) and purified as previously described (Miura et al., 2000).\nSupport for this hypothesis is provided by mutagenesis studies. By analyzing the data obtained from the crystal structure of the murine VWF-A1 domain, the inventors have identified several residues that may participate in interactions with GPIb α (FIG. 15C). Residue 1326 was initially chosen for study and was mutated to the corresponding amino acid at the identical location in its human counterpart (from Arg to His). Subsequently, the ability of murine and human platelets to interact with this mutant protein substrate was evaluated at a wall shear rate of 800 s^−1. Incorporation of a histidine for arginine at position 1326 in murine VWF-A1 reduced murine platelet adhesion by about 5-fold and increased translocation velocities of cells by about 7-fold as compared to the WT mouse protein (FIGS. 13 and 16). […]", "data": [{"molecule": "B1", "values": [{"measurement": "platelets that adhered to and translocated", "result": "449±53", "unit": "platelets/mm^2"}]}]}
